According to paper PMC6066219 (PLoS ONE, 2018):
Read-outs that look alike come from different tables or passages of the source. Marks after values point to notes of the source that are not given here. Starred links: 1 amine or outer side, 2 acyl side, 3 side chain; linkers in the order of their positions; H or OH if unused. Positions of bridges follow the written chain, without caps; N, C: chain ends. Non-standard residues stand in square brackets, D forms with d. Residues, ends and D or L forms follow the SMILES beside them. Chains are numbered I, II in the order given. *: point of attachment. X1 = CC1=CC(=O)N(O)CCCC(NC(=O)CCN2C(=O)CC([*:3])C2=O)C(=O)OCCC(C)=CC(=O)N(O)CCCC(NC(=O)CCN2C(=O)CC([*:2])C2=O)C(=O)OCCC(C)=CC(=O)N(O)CCCC(NC(=O)CCN2C(=O)CC([*:1])C2=O)C(=O)OCC1; X2 = CC(=O)NC1CCCN(O)C(=O)C=C(C)CCOC(=O)C(NC(=O)CCN2C(=O)CC([*:1])C2=O)CCCN(O)C(=O)C=C(C)CCOC(=O)C(NC(=O)CCN2C(=O)CC([*:2])C2=O)CCCN(O)C(=O)C=C(C)CCOC1=O; X3 = CC(=O)NC1CCCN(O)C(=O)C=C(C)CCOC(=O)C(NC(=O)CCN2C(=O)CC(*)C2=O)CCCN(O)C(=O)C=C(C)CCOC(=O)C(NC(C)=O)CCCN(O)C(=O)C=C(C)CCOC1=O; Nle = CCCC[C@H](N)C(=O)O; Mpa = O=C(O)CCS

Experiments:
CCK2 receptor = molecular target: T1, CCK2 receptor (Homo sapiens, UniProt P32239); set-up: method as in PMID 29849512; conditions: natGa-labelled competitor; 125I-[Leu15]-Gastrin radioligand; whole A431-CCK2R cells; cited from earlier work
T1 construct: expressed in transfected cells; host or cells: A431 human epidermoid carcinoma cells (A431-CCK2R), gift from Dr. L. Aloj
T1 sequence (P32239 1-447): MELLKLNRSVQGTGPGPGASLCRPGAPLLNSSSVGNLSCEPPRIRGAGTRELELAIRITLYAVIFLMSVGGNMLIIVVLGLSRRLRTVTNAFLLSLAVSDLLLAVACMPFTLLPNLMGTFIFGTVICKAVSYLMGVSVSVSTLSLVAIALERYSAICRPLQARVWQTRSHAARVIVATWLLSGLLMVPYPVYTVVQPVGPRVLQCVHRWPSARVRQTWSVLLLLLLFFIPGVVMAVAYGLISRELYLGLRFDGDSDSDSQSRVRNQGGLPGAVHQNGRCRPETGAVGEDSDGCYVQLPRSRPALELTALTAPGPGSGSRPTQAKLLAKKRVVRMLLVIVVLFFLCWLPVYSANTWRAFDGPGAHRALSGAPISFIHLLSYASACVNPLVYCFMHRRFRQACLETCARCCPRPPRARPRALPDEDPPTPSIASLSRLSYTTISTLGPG

[1] = cited from earlier work
[2] = tested on: A431-CCK2R/A431-mock tumour xenografted BALB/c nude mice; conditions: mouse, in vivo; cited from earlier work
[3] = assay type: physicochemical; conditions: pH 7.4
Method: To determine the distribution of the ^68Ga-radiolabelled conjugates between an organic and aqueous layer aliquots (50 μL) of the tracers (10 μM) were diluted in 450 μL PBS and after adding 500 μL octanol the mixture was vortexed at 1400 rpm (MS 3 basic vortexer, IKA, Staufen, Germany) for 15 min at RT followed by centrifugation for 2 min at 4500 rpm. Subsequently, aliquots (100 μL) of both layers were collected and measured in the gamma counter (Wizard2 3”, Perkin Elmer, Waltham, MA, USA) followed by logD calculation using Excel (n = 3, six replicates).

in vivo = experiment: in vivo; set-up: species or system BALB/c nude mice; conditions: female, BALB/c nude, mouse, iv, total radioactivity
Method: (§1) Ex vivo biodistribution studies were conducted using female 8−10 weeks old athymic BALB/c nude mice (Charles River Laboratories, Sulzfeld, Germany). Tumour xenografts were induced by subcutaneous injection of 2 × 10^6 A431-CCK2R cells (receptor positive) in the right and 2 × 10^6 A431-mock cells (receptor negative) in the left flank and tumours were allowed to grow until they had reached a volume of 0.3–0.6 cm^3.To evaluate the biodistribution profile double tumour xenografted BALB/c nude mice (n = 3) were intravenously injected with 1–2 MBq of ^68Ga-labelled peptides (0.1–0.2 nmol). The animals were sacrificed by cervical dislocation after 1 h and 4 h in case of the trimer. The collected samples were measured in the gamma counter and the results were calculated as percentage of injected activity per gram tissue (% IA/g).

[4] = tested on: A431-CCK2R/A431-mock tumour xenografted BALB/c nude mice; experiment: in vivo; conditions: mouse
Method: as §1

Row | SMILES | IC50 (CCK2 receptor) | Distribution coefficient logD (pH 7.4) [1] | logD [3] | tissue uptake at 1 h (in vivo; A431-CCK2R tumour uptake) | tissue uptake at 1 h (in vivo; A431-mock tumour uptake) | tissue uptake at 1 h (in vivo; Blood uptake) | tissue uptake at 1 h (in vivo; Bone uptake) | tissue uptake at 1 h (in vivo; Heart uptake) | tissue uptake at 1 h (in vivo; Intestine uptake) | tissue uptake at 1 h (in vivo; Kidneys uptake) | tissue uptake at 1 h (in vivo; Liver uptake) | tissue uptake at 1 h (in vivo; Lung uptake) | tissue uptake at 1 h (in vivo; Muscle uptake) | tissue uptake at 1 h (in vivo; Pancreas uptake) | tissue to tissue ratio at 1 h (in vivo; Ratio T/O tumour-to-Blood) | tissue to tissue ratio at 1 h (in vivo; Ratio T/O tumour-to-Bone) | tissue to tissue ratio at 1 h (in vivo; Ratio T/O tumour-to-Heart) | tissue to tissue ratio at 1 h (in vivo; Ratio T/O tumour-to-Intestine) | tissue to tissue ratio at 1 h (in vivo; Ratio T/O tumour-to-Kidneys) | tissue to tissue ratio at 1 h (in vivo; Ratio T/O tumour-to-Liver) | further results
1 | CSCC[C@H](NC(=O)[C@H](Cc1c[nH]c2ccccc12)NC(=O)CNC(=O)[C@H](Cc1ccc(O)cc1)NC(=O)[C@H](C)NC(=O)[C@@H](CCC(=O)O)NC(=O)CCSC1CC(=O)N(CCC(=O)NC2CCCN(O)C(=O)C=C(C)CCOC(=O)C(NC(=O)CCN3C(=O)CC(SCCC(=O)N[C@H](CCC(=O)O)C(=O)N[C@@H](C)C(=O)N[C@@H](Cc4ccc(O)cc4)C(=O)NCC(=O)N[C@@H](Cc4c[nH]c5ccccc45)C(=O)N[C@@H](CCSC)C(=O)N[C@@H](CC(=O)O)C(=O)N[C@@H](Cc4ccccc4)C(N)=O)C3=O)CCCN(O)C(=O)C=C(C)CCOC(=O)C(NC(C)=O)CCCN(O)C(=O)C=C(C)CCOC2=O)C1=O)C(=O)N[C@@H](CC(=O)O)C(=O)N[C@@H](Cc1ccccc1)C(N)=O (some centres unmarked) [Dimer-Met] (I: [Mpa][dE]AYGWMDF-NH2 / II: [Mpa][dE]AYGWMDF-NH2; linker I:1-II:1 via X2) | 0.85 ± 0.15 nM | -2.38 ± 0.04 |  |  |  |  |  |  |  |  |  |  |  |  |  |  |  |  |  |  | Ratio T/O tumour-to-A431-mock [2]: 17.9 ± 6.1^c; Ratio T/O tumour-to-Blood [2]: 16.0 ± 3.1^cd; Ratio T/O tumour-to-Bone [2]: 11.6 ± 1.9^c; Ratio T/O tumour-to-Heart [2]: 27.2 ± 4.8^cd; Ratio T/O tumour-to-Intestine [2]: 19.9 ± 4.9^acd; Ratio T/O tumour-to-Kidneys [2]: 0.30 ± 0.06^c; Ratio T/O tumour-to-Liver [2]: 11.1 ± 2.4^cd; Ratio T/O tumour-to-Lung [2]: 14.4 ± 2.3^cd; Ratio T/O tumour-to-Muscle [2]: 31.4 ± 13.2^c; Ratio T/O tumour-to-Pancreas [2]: 17.9 ± 3.2^cd; Ratio T/O tumour-to-Spleen [2]: 23.1 ± 4.2^cd; Ratio T/O tumour-to-Stomach [2]: 4.0 ± 0.5^cd
2 | CCCC[C@H](NC(=O)[C@H](Cc1c[nH]c2ccccc12)NC(=O)CNC(=O)[C@H](Cc1ccc(O)cc1)NC(=O)[C@H](C)NC(=O)[C@@H](CCC(=O)O)NC(=O)CCSC1CC(=O)N(CCC(=O)NC2CCCN(O)C(=O)C=C(C)CCOC(=O)C(NC(=O)CCN3C(=O)CC(SCCC(=O)N[C@H](CCC(=O)O)C(=O)N[C@@H](C)C(=O)N[C@@H](Cc4ccc(O)cc4)C(=O)NCC(=O)N[C@@H](Cc4c[nH]c5ccccc45)C(=O)N[C@@H](CCCC)C(=O)N[C@@H](CC(=O)O)C(=O)N[C@@H](Cc4ccccc4)C(N)=O)C3=O)CCCN(O)C(=O)C=C(C)CCOC(=O)C(NC(C)=O)CCCN(O)C(=O)C=C(C)CCOC2=O)C1=O)C(=O)N[C@@H](CC(=O)O)C(=O)N[C@@H](Cc1ccccc1)C(N)=O (some centres unmarked) [Dimer-Nle] (I: [Mpa][dE]AYGW[Nle]DF-NH2 / II: [Mpa][dE]AYGW[Nle]DF-NH2; linker I:1-II:1 via X2) |  |  | -2.05 ± 0.19 | 5 ± 0.79 %ID/g | 0.65 ± 0.14 %ID/g | 1.4 ± 0.48 %ID/g | 0.8 ± 0.37 %ID/g | 0.62 ± 0.12 %ID/g | 0.64 ± 0.12 %ID/g | 12.8 ± 0.16 %ID/g | 3.49 ± 0.94 %ID/g | 1.54 ± 0.33 %ID/g | 0.36 ± 0.12 %ID/g | 0.98 ± 0.28 %ID/g | 4 ± 1.3 | 7.6 ± 3.2 | 8.2 ± 1.2 | 8.1 ± 1.8 | 0.39 ± 0.06 | 1.5 ± 0.4 | tissue to tissue ratio at 1 h (in vivo; Ratio T/O tumour-to-Lung): 3.3 ± 0.5; tissue to tissue ratio at 1 h (in vivo; Ratio T/O tumour-to-Muscle): 15.8 ± 5.8; tissue to tissue ratio at 1 h (in vivo; Ratio T/O tumour-to-Pancreas): 5.4 ± 1.3; tissue to tissue ratio at 1 h (in vivo; Ratio T/O tumour-to-Spleen): 5.2 ± 0.5; tissue to tissue ratio at 1 h (in vivo; Ratio T/O tumour-to-Stomach): 2.2 ± 0.3; tissue uptake at 1 h (in vivo; Spleen uptake): 0.95 ± 0.07 %ID/g; tissue uptake at 1 h (in vivo; Stomach uptake): 2.25 ± 0.17 %ID/g; Ratio T/O tumour-to-A431-mock [4]: 8.0 ± 1.8^c
3 | CCCC[C@H](NC(=O)[C@H](Cc1c[nH]c2ccccc12)NC(=O)CNC(=O)[C@H](Cc1ccc(O)cc1)NC(=O)[C@H](C)NC(=O)[C@@H](CCC(=O)O)NC(=O)CCSC1CC(=O)N(CCC(=O)NC2CCCN(O)C(=O)C=C(C)CCOC(=O)C(NC(C)=O)CCCN(O)C(=O)C=C(C)CCOC(=O)C(NC(C)=O)CCCN(O)C(=O)C=C(C)CCOC2=O)C1=O)C(=O)N[C@@H](CC(=O)O)C(=O)N[C@@H](Cc1ccccc1)C(N)=O (some centres unmarked) [Monomer-Nle] ([Mpa](X3)[dE]AYGW[Nle]DF-NH2) |  |  | -2.69 ± 0.14 | 1.97 ± 0.25 %ID/g | 0.22 ± 0.07 %ID/g | 0.25 ± 0.07 %ID/g | 0.3 ± 0.12 %ID/g | 0.12 ± 0.03 %ID/g | 0.36 ± 0.12 %ID/g | 2.72 ± 0.29 %ID/g | 0.17 ± 0.01 %ID/g | 0.25 ± 0.03 %ID/g | 0.1 ± 0.02 %ID/g | 0.24 ± 0.02 %ID/g | 9 ± 3.6 | 7.9 ± 3.1 | 17.6 ± 5.2 | 6.6 ± 3.6 | 0.75 ± 0.18 | 11.5 ± 2 | tissue to tissue ratio at 1 h (in vivo; Ratio T/O tumour-to-Lung): 8.1 ± 2.1; tissue to tissue ratio at 1 h (in vivo; Ratio T/O tumour-to-Muscle): 22.1 ± 6; tissue to tissue ratio at 1 h (in vivo; Ratio T/O tumour-to-Pancreas): 8.4 ± 1.6; tissue to tissue ratio at 1 h (in vivo; Ratio T/O tumour-to-Spleen): 19.8 ± 4; tissue to tissue ratio at 1 h (in vivo; Ratio T/O tumour-to-Stomach): 3.1 ± 0.9; tissue uptake at 1 h (in vivo; Spleen uptake): 0.1 ± 0.03 %ID/g; tissue uptake at 1 h (in vivo; Stomach uptake): 0.66 ± 0.11 %ID/g; Ratio T/O tumour-to-A431-mock [4]: 9.8 ± 2.2^b
4 | CSCC[C@H](NC(=O)[C@H](Cc1c[nH]c2ccccc12)NC(=O)CNC(=O)[C@H](Cc1ccc(O)cc1)NC(=O)[C@H](C)NC(=O)[C@@H](CCC(=O)O)NC(=O)CCSC1CC(=O)N(CCC(=O)NC2CCCN(O)C(=O)C=C(C)CCOC(=O)C(NC(=O)CCN3C(=O)CC(SCCC(=O)N[C@H](CCC(=O)O)C(=O)N[C@@H](C)C(=O)N[C@@H](Cc4ccc(O)cc4)C(=O)NCC(=O)N[C@@H](Cc4c[nH]c5ccccc45)C(=O)N[C@@H](CCSC)C(=O)N[C@@H](CC(=O)O)C(=O)N[C@@H](Cc4ccccc4)C(N)=O)C3=O)CCCN(O)C(=O)C=C(C)CCOC(=O)C(NC(=O)CCN3C(=O)CC(SCCC(=O)N[C@H](CCC(=O)O)C(=O)N[C@@H](C)C(=O)N[C@@H](Cc4ccc(O)cc4)C(=O)NCC(=O)N[C@@H](Cc4c[nH]c5ccccc45)C(=O)N[C@@H](CCSC)C(=O)N[C@@H](CC(=O)O)C(=O)N[C@@H](Cc4ccccc4)C(N)=O)C3=O)CCCN(O)C(=O)C=C(C)CCOC2=O)C1=O)C(=O)N[C@@H](CC(=O)O)C(=O)N[C@@H](Cc1ccccc1)C(N)=O (some centres unmarked) [Trimer-Met] (I: [Mpa][dE]AYGWMDF-NH2 / II: [Mpa][dE]AYGWMDF-NH2 / III: [Mpa][dE]AYGWMDF-NH2; linker I:1-II:1-III:1 via X1) | 8.33 ± 2.2 nM | -2.20 ± 0.07 |  |  |  |  |  |  |  |  |  |  |  |  |  |  |  |  |  |  | 
